Assay results published in patent publication US20170114099A1 (Affibody, published 2017).
Read-outs that look alike come from different tables or passages of the source.

Key:
Experiment in all cases: cell-based or functional assay
[1] = molecular target: T1, cell surface IL-6 receptor on TF-1 cells (UniProt P08887 20-468, limits assumed)
T1 sequence (looked up): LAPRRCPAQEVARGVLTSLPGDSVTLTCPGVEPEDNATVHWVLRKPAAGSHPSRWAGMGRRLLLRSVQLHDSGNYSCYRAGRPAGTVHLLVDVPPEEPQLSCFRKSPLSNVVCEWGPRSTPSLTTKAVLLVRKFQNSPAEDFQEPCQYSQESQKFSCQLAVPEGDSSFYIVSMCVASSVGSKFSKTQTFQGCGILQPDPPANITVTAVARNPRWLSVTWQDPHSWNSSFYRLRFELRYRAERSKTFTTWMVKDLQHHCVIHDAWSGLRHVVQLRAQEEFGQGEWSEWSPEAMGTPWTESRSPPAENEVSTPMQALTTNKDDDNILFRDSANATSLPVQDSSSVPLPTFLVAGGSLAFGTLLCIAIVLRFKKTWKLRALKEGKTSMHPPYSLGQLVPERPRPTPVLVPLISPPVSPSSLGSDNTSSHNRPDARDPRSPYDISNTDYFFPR

[2] = molecular target: T2, human IL-6 receptor alpha (hIL-6Rα) (human, UniProt P08887 20-358, limits assumed)
T2 sequence (looked up): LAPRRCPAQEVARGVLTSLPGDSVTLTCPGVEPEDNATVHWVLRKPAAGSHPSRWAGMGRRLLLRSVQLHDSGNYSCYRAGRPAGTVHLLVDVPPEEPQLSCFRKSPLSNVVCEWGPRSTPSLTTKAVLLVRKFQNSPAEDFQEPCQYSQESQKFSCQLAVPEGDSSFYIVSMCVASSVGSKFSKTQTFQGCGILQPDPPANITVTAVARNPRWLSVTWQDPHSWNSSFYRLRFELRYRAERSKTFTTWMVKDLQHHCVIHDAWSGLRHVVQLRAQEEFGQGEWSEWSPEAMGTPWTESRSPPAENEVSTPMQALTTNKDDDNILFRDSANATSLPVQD

[3] = molecular target: T1, cell surface IL-6 receptor on TF-1 cells; remark: listed apart in the source

B1: tocilizumab (antibody, V domains shown)
VH: QVQLQESGPGLVRPSQTLSLTCTVSGYSITSDHAWSWVRQPPGRGLEWIGYISYSGITTYNPSLKSRVTMLRDTSKNQFSLRLSSVTAADTAVYYCARSLARTTAMDYWGQGSLVTVSS
VL: DIQMTQSPSSLSASVGDRVTITCRASQDISSYLNWYQQKPGKAPKLLIYYTSRLHSGVPSRFSGSGSGTDFTFTISSLQPEDIATYYCQQGNTLPYTFGQGTKVEIKR
IC50 blocking the IL-6 dependent growth of TF-1 cells [1]: 0.3 nM | IC50, inhibition of IL-6 trans-signaling dependent MCP-1 secretion by HUVECs [2]: ~5 nM | IC50 blocking the IL-6 dependent growth of TF-1 cells [3]: 0.41 nM
